This is an account of results in the RNAGym collection of RNA variant scans (doi:10.7554/elife.80360).

B1: Twister Ribozyme (parent)
chain: AACACUGCCAAUGCCGGUCCCAAGCCCGGAUAAAAGUGGAGGGGGCGG

Variants of B1 are the subject of this data set. The experiment in a line: self-cleavage, relative activity (ratio to wild type); higher = more cleavage; co-transcriptional.
On to AACACUGCCAAUGCCGGUCCCUAGCCCGGAUAAAAGUGGAGGGCGCGG [A22U G44C], for which the self-cleavage is 0.836.
Then AACACUGCUAAUGCCGGUCCCAAGCCCGGAUAAUAGUGGAGGGGGCGG [C9U A34U], with 0.477.
To AUCACUGCCAAUGCCGGUCCCAAGCCCAGAUAAAAGUGGAGGGGGCGG [A2U G28A] belongs 0.409; to AACACUGCCAAUGCCGGUCCCAAGCCCGGAUAAAAGGGGAGGGGGCGC [U37G G48C], 0.843; to AACACCGCCAAUGCCGGUCCCAAGCCCGGUUAAAAGUGGAGGGGGCGG [U6C A30U], 0.493.
Regarding AACAAUGCCAAUGGCGGUCCCAAGCCCGGAUAAAAGUGGAGGGGGCGG [C5A C14G], the self-cleavage is 0.0565.
As for AACACUGCCAAUGCCGGUCCCAAGCCCGGAUAUAAGUGGAGGGCGCGG [A33U G44C], the self-cleavage was 0.928.
On to AACACUGCCAAUGCCUGUCCCAAGCCCGGAUAAAAGUUGAGGGGGCGG [G16U G38U], for which the self-cleavage turned out to be 0.914.
AACACGGCCAAUGCCGGUCCAAAGCCCGGAUAAAAGUGGAGGGGGCGG [U6G C21A]: the self-cleavage amounted to 0.0289.
Turning to AACACUGCCAAGGCCGGUCCCAAGCCCUGAUAAAAGUGGAGGGGGCGG [U12G G28U], the self-cleavage was found to be 0.464.
In the case of AACACUGCCAAUGUGGGUCCCAAGCCCGGAUAAAAGUGGAGGGGGCGG [C14U C15G], the self-cleavage was 0.36.
For AACACUGCCAAUGCCGGUACCAAGCCCGGAUAAGAGUGGAGGGGGCGG [C19A A34G], the self-cleavage worked out at 0.101.
On to AACACUGCCAUUGCCGGUCUCAAGCCCGGAUAAAAGUGGAGGGGGCGG [A11U C20U], for which the self-cleavage was determined as 1.08.
Regarding AACACUGCCCAUGCCGGUCCCAAGCCCGGAUAAAAGUGGAGGGGGGGG [A10C C46G], the self-cleavage amounted to 0.714.
For AACACUGCCAAUGCCGGUCCCAGGCCCGGAUAAAAGUGGACGGGGCGG [A23G G41C], the self-cleavage is 0.138.
Then AACACUGCCAAUGCCGGUCCCUAACCCGGAUAAAAGUGGAGGGGGCGG [A22U G24A], with 0.0776; and AAUACUGCCAAUGCCGGUCCCAAGCCCGGAUAAAAGCGGAGGGGGCGG [C3U U37C], with 0.172.
In the case of AACACUGCCAAUGCCGCUCCCAAGACCGGAUAAAAGUGGAGGGGGCGG [G17C C25A], the self-cleavage amounted to 0.0882.
AACACUGCCAAUGCCGGUCCCAAGCCCGGGUAAAAGGGGAGGGGGCGG [A30G U37G]: the self-cleavage came out at 0.92.
On to AACACAGCCAAUGCCGGUCCCAAGCCCGGAUAAAAGUGGUGGGGGCGG [U6A A40U], for which the self-cleavage amounted to 0.116.
Consider AACACUGCCAAUGCCGCUCCCAAGCCCGGAUUAAAGUGGAGGGGGCGG [G17C A32U], for which the self-cleavage was 0.109.
As for AACACUGCCAAUGUCGGUCCCAAGCCCGGAUAAAAGUGGAGGGGGCAG [C14U G47A], the self-cleavage was found to be 0.947.
AACACUGCCAAUGCUGGUCCCAAGCCCGGAUAAAAGUGGAGGGGACGG [C15U G45A]: the self-cleavage was 0.924.
To AACACUGCCAACGCCUGUCCCAAGCCCGGAUAAAAGUGGAGGGGGCGG [U12C G16U] belongs 0.799; to AACACUGCCAAUGCUGGUCCCAAGCCCGGAUAAAAGUGGAGGGGGGGG [C15U C46G], 0.887.
Turning to AACACUGCCAAUGCCGGUCCCAAGCCCGGAUAAAAGUAGAGGGGUCGG [G38A G45U], the self-cleavage was 0.737.
Then AACACUGCCAAUGCCGGUCCCGAGCCCGGAUAAAAGUGGAGGGGUCGG [A22G G45U], with 0.143.
In the case of AACACUGCCAAUGCCGGUUGCAAGCCCGGAUAAAAGUGGAGGGGGCGG [C19U C20G], the self-cleavage was found to be 0.0718.
With AACACUGCCAAUGCCGGUCCCAAGCCCGGAAAAAAGUGGAAGGGGCGG [U31A G41A], the self-cleavage was 0.452.
Then AACACUGACAAUGCCGGUCCCAAGCCCGGAUAAAAGUUGAGGGGGCGG [C8A G38U], with 0.169.
In the case of AACACUGCAAAUGCCGGUCCCAAGCCCGGAUAAAUGUGGAGGGGGCGG [C9A A35U], the self-cleavage was found to be 0.628.
In the case of AAGACUGCCAAUGCCGGUCCCAAGCCCGGAUAAAAGUGGAGGGGCCGG [C3G G45C], the self-cleavage came out at 0.207.
To AACACUGCCAAUGCCGGUCCCAAGCCCGGAUCAAAGUGGAGGGGCCGG [A32C G45C] belongs 0.546; to AACACUGCCCAUGCCGGUCCCAAGCCCAGAUAAAAGUGGAGGGGGCGG [A10C G28A], 0.841.
For the variant AACACUGCCAAUGCCGGUCCCAAGCCCGGAUAAAAGUGGAGGCGGCGG [G43C], the self-cleavage worked out at 0.227.
To AACACUGCCAAUGCCGGUCCCAAGCCGGGAUAAAAGUGGAGGGGCCGG [C27G G45C] belongs 0.0921; to AACACUGCCAAUGCCGGUCCCAAGCCCGGAUAAAAGUGGAGGGCACGG [G44C G45A], 0.762.
As to CACACUGCCAAUGCCGGUCCCAAGCCCGGAUAAAAGUGGAGGGGGCGG [A1C], the self-cleavage was found to be 0.175.
Take AACGCUGCCAAUGCCGGUCCCAAGCCCGGAUAAAAGUGGAGGGGCCGG [A4G G45C]: the self-cleavage was found to be 0.294.
For AACACUGCCAAUCCUGGUCCCAAGCCCGGAUAAAAGUGGAGGGGGCGG [G13C C15U], the self-cleavage is 0.0748.
For the variant AACACUGCCGAUGCCGGUCCCAAGCCCGCAUAAAAGUGGAGGGGGCGG [A10G G29C], the self-cleavage was 1.01.
Take AACACUGCCAAUGCCGGUCUCAAGACCGGAUAAAAGUGGAGGGGGCGG [C20U C25A]: the self-cleavage was found to be 0.078.
Turning to AACACAGCCAAUGCCGGUCCCAAGCCCGGAUAAAAGGGGAGGGGGCGG [U6A U37G], the self-cleavage was determined as 0.328.
With AACACUGCCAAUGCCGGUCCCAAGGCCGGAUAAAAGUGGAGGGGGCGU [C25G G48U], the self-cleavage was found to be 0.21.
Turning to AACACUGCCAAUGCCGGUCCCAAGCCCGGAUAAACGUGGAGAGGGCGG [A35C G42A], the self-cleavage was 0.32.
As to AACACUGCCAAUGACGGUCCCAAGCCCGGAUAAAAGUGGAGGGGUCGG [C14A G45U], the self-cleavage worked out at 0.698.
Regarding AACACUGCCAAUGCCGGUCCCAAGCCCGGAUAAGAGUGGAAGGGGCGG [A34G G41A], the self-cleavage amounted to 0.141.
Consider AACACUGCCAAUGCCGGUCCCAAGCCGGGAUAAAAGUGGAGGGGGCGA [C27G G48A], for which the self-cleavage came out at 0.102.
Then AACACAGCCAAUGCCGGUCACAAGCCCGGAUAAAAGUGGAGGGGGCGG [U6A C20A], with 0.0593; and AACACUGCCAAUGCCGGUCCUAAGCCCGGAUAAAAGUAGAGGGGGCGG [C21U G38A], with 0.0657.
Regarding AACACUGCCAAUGCCGGCCCCAAGCCCGGAUAAAAGUGGAGGGGGCCG [U18C G47C], the self-cleavage came to 0.162.
AACACUGCCAAUGCCGGUCCCAAGCCCGCAUAAAAGUGGAGGGGGGGG [G29C C46G]: the self-cleavage worked out at 0.586.
With AACACUGCCAAUGCCGAUCCGAAGCCCGGAUAAAAGUGGAGGGGGCGG [G17A C21G], the self-cleavage was 0.073.
To AACACUGCCAAUGCCGGUCCCAAGCCCAGAUAAAAGUGGAGAGGGCGG [G28A G42A] belongs 0.263.
